Legend:
human CD28 [1] = target: T1, human CD28 (human, UniProt P10747 19-152, limits assumed); assay: method not stated; Monovalent CD28 KD, table headed 1A7[CD28] H1_L1.71 (aka 180 nM)
T1 construct: also called Cluster of Differentiation 28; Tp44

human CD28 [2] = target: T1, human CD28; assay: method not stated; Monovalent CD28 KD, table headed 1A7[CD28] H1.14_L1.71 (aka 37 nM)

Binder	Kd (human CD28 [1]) [nM]	Kd (human CD28 [2]) [nM]
XENP39554 (bispecific antibody, also called H1_L1.71) heavy: QVQLVQSGAEVKKPGASVKVSCKASGYTFTSYWMHWVRQAPGQGLEWMGMIHPNSDNTIYYEKFQGRVTMTVDKSISTAYMELSRLRSDDTAVYYCAIIITPVVPKFDYWGQGTLVTVSSASTKGPSVFPLAPSSKSTSGGTAALGCLVKDYFPEPVTVSWNSGALTSGVHTFPAVLQSSGLYSLSSVVTVPSSSLGTQTYICNVNHKPSDTKVDKKVEPKSCDKTHTCPPCPAPPVAGPSVFLFPPKPKDTLMISRTPEVTCVVVDVKHEDPEVKFNWYVDGVEVHNAKTKPREEEYNSTYRVVSVLTVLHQDWLNGKEYKCKVSNKALPAPIEKTISKAKGQPREPQVYTLPPSREEMTKNQVSLTCDVSGFYPSDIAVEWESDGQPENNYKTTPPVLDSDGSFFLYSKLTVDKSRWEQGDVFSCSVLHEALHSHYTQKSLSLSPGK scFv-Fc: not shown light: DIVMTQSPDSLAVSLGERATINCKASHDVGTSVAWYQQKPGQSPKLLIYWASTRHTGVPDRFTGSGSGTDFTLTISSLQAEDVAVYFCQQYSSYPLTFGAGTKLEIKRTVAAPSVFIFPPSDEQLKSGTASVVCLLNNFYPREAKVQWKVDNALQSGNSQESVTEQDSKDSTYSLSSTLTLSKADYEKHKVYACEVTHQGLSSPVTKSFNRGEC	200	
XENP39534 (bispecific antibody, also called H1_L1.71) heavy 1: QVQLVQSGAEVKKPGASVKVSCKASGYTFTSYWMHWVRQAPGQGLEWMGMIHPNSDNTIYYEKFQGRVTMTVDKSISTAYMELSRLRSDDTAVYYCAIIITPVVPKFDYWGQGTLVTVSSASTKGPSVFPLAPSSKSTSGGTAALGCLVKDYFPEPVTVSWNSGALTSGVHTFPAVLQSSGLYSLSSVVTVPSSSLGTQTYICNVNHKPSDTKVDKKVEPKSCDKTHTCPPCPAPPVAGPSVFLFPPKPKDTLMISRTPEVTCVVVDVKHEDPEVKFNWYVDGVEVHNAKTKPREEEYNSTYRVVSVLTVLHQDWLNGKEYKCKVSNKALPAPIEKTISKAKGQPREPQVYTLPPSREEMTKNQVSLTCDVSGFYPSDIAVEWESDGQPENNYKTTPPVLDSDGSFFLYSKLTVDKSRWEQGDVFSCSVLHEALHSHYTQKSLSLSPGK heavy 2: not shown light 1: DIVMTQSPDSLAVSLGERATINCKASHDVGTSVAWYQQKPGQSPKLLIYWASTRHTGVPDRFTGSGSGTDFTLTISSLQAEDVAVYFCQQYSSYPLTFGAGTKLEIKRTVAAPSVFIFPPSDEQLKSGTASVVCLLNNFYPREAKVQWKVDNALQSGNSQESVTEQDSKDSTYSLSSTLTLSKADYEKHKVYACEVTHQGLSSPVTKSFNRGEC light 2: DIVMTQSPDSLAVSLGERATINCKASHDVGTSVAWYQQKPGQSPKLLIYWASTRHTGVPDRFTGSGSGTDFTLTISSLQAEDVAVYFCQQYSSYPLTFGAGTKLEIKRTVAAPSVFIFPPSDEQLKSGTASVVCLLNNFYPREAKVQWKVDNALQSGNSQESVTEQDSKDSTYSLSSTLTLSKADYEKHKVYACEVTHQGLSSPVTKSFNRGEC	460	
XENP44475 (bispecific antibody, also called 2+1 Fab2-Fc x scFv-Fc MSLN x CD28 bsAb) chain 1: QVQLVQSGAEVKKPGASVKVSCKASGYTFTSYWMHWVRQAPGQGLEWMGMIHPNSDNTIYYEKFQGRVTMTVDKSISTAYMELSRLRSDDTAVYYCAIIITPVVPKFDYWGQGTLVTVSSASTKGPSVFPLAPSSKSTSGGTAALGCLVKDYFPEPVTVSWNSGALTSGVHTFPAVLQSSGLYSLSSVVTVPSSSLGTQTYICNVNHKPSDTKVDKKVEPKSCGGGGSGGGGSQVQLVQSGAEVKKPGASVKVSCKASGYTFTSYWMHWVRQAPGQGLEWMGMIHPNSDNTIYYEKFQGRVTMTVDKSISTAYMELSRLRSDDTAVYYCAIIITPVVPKFDYWGQGTLVTVSSASTKGPSVFPLAPSSKSTSGGTAALGCLVKDYFPEPVTVSWNSGALTSGVHTFPAVLQSSGLYSLSSVVTVPSSSLGTQTYICNVNHKPSDTKVDKKVEPKSCDKTHTCPPCPAPPVAGPSVFLFPPKPKDTLMISRTPEVTCVVVDVKHEDPEVKFNWYVDGVEVHNAKTKPREEEYNSTYRVVSVLTVLHQDWLNGKEYKCKVSNKALPAPIEKTISKAKGQPREPQVYTLPPSREEMTKNQVSLTCDVSGFYPSDIAVEWESDGQPENNYKTTPPVLDSDGSFFLYSKLTVDKSRWEQGDVFSCSVLHEALHSHYTQKSLSLSPGK chain 2: not shown chain 3: DIVMTQSPDSLAVSLGERATINCKASHDVGTSVAWYQQKPGQSPKLLIYWASTRHTGVPDRFTGSGSGTDFTLTISSLQAEDVAVYFCQQYSSYPLTFGAGTKLEIKRTVAAPSVFIFPPSDEQLKSGTASVVCLLNNFYPREAKVQWKVDNALQSGNSQESVTEQDSKDSTYSLSSTLTLSKADYEKHKVYACEVTHQGLSSPVTKSFNRGEC		740
XENP44469 (bispecific antibody, also called 2+1 Fab2-scFv-Fc MSLN x CD28 bsAb) chain 1: QVQLVQSGAEVKKPGASVKVSCKASGYTFTSYWMHWVRQAPGQGLEWMGMIHPNSDNTIYYEKFQGRVTMTVDKSISTAYMELSRLRSDDTAVYYCAIIITPVVPKFDYWGQGTLVTVSSASTKGPSVFPLAPSSKSTSGGTAALGCLVKDYFPEPVTVSWNSGALTSGVHTFPAVLQSSGLYSLSSVVTVPSSSLGTQTYICNVNHKPSDTKVDKKVEPKSCDKTHTCPPCPAPPVAGPSVFLFPPKPKDTLMISRTPEVTCVVVDVKHEDPEVKFNWYVDGVEVHNAKTKPREEEYNSTYRVVSVLTVLHQDWLNGKEYKCKVSNKALPAPIEKTISKAKGQPREPQVYTLPPSREEMTKNQVSLTCDVSGFYPSDIAVEWESDGQPENNYKTTPPVLDSDGSFFLYSKLTVDKSRWEQGDVFSCSVLHEALHSHYTQKSLSLSPGK chain 2: not shown chain 3: DIVMTQSPDSLAVSLGERATINCKASHDVGTSVAWYQQKPGQSPKLLIYWASTRHTGVPDRFTGSGSGTDFTLTISSLQAEDVAVYFCQQYSSYPLTFGAGTKLEIKRTVAAPSVFIFPPSDEQLKSGTASVVCLLNNFYPREAKVQWKVDNALQSGNSQESVTEQDSKDSTYSLSSTLTLSKADYEKHKVYACEVTHQGLSSPVTKSFNRGEC		580
XENP44474 (bispecific antibody, also called 2+1 Fab2-Fc x scFv-Fc MSLN x CD28 bsAb) chain 1: QVQLVQSGAEVKKPGASVKVSCKASGYTFTSYWMHWVRQAPGQGLEWMGMIHPNSDNTIYYEKFQGRVTMTVDKSISTAYMELSRLRSDDTAVYYCAIIITPVVPKFDYWGQGTLVTVSSASTKGPSVFPLAPSSKSTSGGTAALGCLVKDYFPEPVTVSWNSGALTSGVHTFPAVLQSSGLYSLSSVVTVPSSSLGTQTYICNVNHKPSDTKVDKKVEPKSCGGGGSGGGGSQVQLVQSGAEVKKPGASVKVSCKASGYTFTSYWMHWVRQAPGQGLEWMGMIHPNSDNTIYYEKFQGRVTMTVDKSISTAYMELSRLRSDDTAVYYCAIIITPVVPKFDYWGQGTLVTVSSASTKGPSVFPLAPSSKSTSGGTAALGCLVKDYFPEPVTVSWNSGALTSGVHTFPAVLQSSGLYSLSSVVTVPSSSLGTQTYICNVNHKPSDTKVDKKVEPKSCDKTHTCPPCPAPPVAGPSVFLFPPKPKDTLMISRTPEVTCVVVDVKHEDPEVKFNWYVDGVEVHNAKTKPREEEYNSTYRVVSVLTVLHQDWLNGKEYKCKVSNKALPAPIEKTISKAKGQPREPQVYTLPPSREEMTKNQVSLTCDVSGFYPSDIAVEWESDGQPENNYKTTPPVLDSDGSFFLYSKLTVDKSRWEQGDVFSCSVLHEALHSHYTQKSLSLSPGK chain 2: not shown chain 3: DIVMTQSPDSLAVSLGERATINCKASHDVGTSVAWYQQKPGQSPKLLIYWASTRHTGVPDRFTGSGSGTDFTLTISSLQAEDVAVYFCQQYSSYPLTFGAGTKLEIKRTVAAPSVFIFPPSDEQLKSGTASVVCLLNNFYPREAKVQWKVDNALQSGNSQESVTEQDSKDSTYSLSSTLTLSKADYEKHKVYACEVTHQGLSSPVTKSFNRGEC	4900	
XENP39533 (bispecific antibody, also called H1.14_L1.71) heavy 1: QVQLVQSGAEVKKPGASVKVSCKASGYTFTSYWMHWVRQAPGQGLEWMGMIHPNSDNTIYYEKFQGRVTMTVDKSISTAYMELSRLRSDDTAVYYCAIIITPVVPKFDYWGQGTLVTVSSASTKGPSVFPLAPSSKSTSGGTAALGCLVKDYFPEPVTVSWNSGALTSGVHTFPAVLQSSGLYSLSSVVTVPSSSLGTQTYICNVNHKPSDTKVDKKVEPKSCDKTHTCPPCPAPPVAGPSVFLFPPKPKDTLMISRTPEVTCVVVDVKHEDPEVKFNWYVDGVEVHNAKTKPREEEYNSTYRVVSVLTVLHQDWLNGKEYKCKVSNKALPAPIEKTISKAKGQPREPQVYTLPPSREEMTKNQVSLTCDVSGFYPSDIAVEWESDGQPENNYKTTPPVLDSDGSFFLYSKLTVDKSRWEQGDVFSCSVLHEALHSHYTQKSLSLSPGK heavy 2: not shown light 1: DIVMTQSPDSLAVSLGERATINCKASHDVGTSVAWYQQKPGQSPKLLIYWASTRHTGVPDRFTGSGSGTDFTLTISSLQAEDVAVYFCQQYSSYPLTFGAGTKLEIKRTVAAPSVFIFPPSDEQLKSGTASVVCLLNNFYPREAKVQWKVDNALQSGNSQESVTEQDSKDSTYSLSSTLTLSKADYEKHKVYACEVTHQGLSSPVTKSFNRGEC light 2: DIVMTQSPDSLAVSLGERATINCKASHDVGTSVAWYQQKPGQSPKLLIYWASTRHTGVPDRFTGSGSGTDFTLTISSLQAEDVAVYFCQQYSSYPLTFGAGTKLEIKRTVAAPSVFIFPPSDEQLKSGTASVVCLLNNFYPREAKVQWKVDNALQSGNSQESVTEQDSKDSTYSLSSTLTLSKADYEKHKVYACEVTHQGLSSPVTKSFNRGEC		660
XENP44468 (bispecific antibody, also called 2+1 Fab2-scFv-Fc MSLN x CD28 bsAb) chain 1: QVQLVQSGAEVKKPGASVKVSCKASGYTFTSYWMHWVRQAPGQGLEWMGMIHPNSDNTIYYEKFQGRVTMTVDKSISTAYMELSRLRSDDTAVYYCAIIITPVVPKFDYWGQGTLVTVSSASTKGPSVFPLAPSSKSTSGGTAALGCLVKDYFPEPVTVSWNSGALTSGVHTFPAVLQSSGLYSLSSVVTVPSSSLGTQTYICNVNHKPSDTKVDKKVEPKSCDKTHTCPPCPAPPVAGPSVFLFPPKPKDTLMISRTPEVTCVVVDVKHEDPEVKFNWYVDGVEVHNAKTKPREEEYNSTYRVVSVLTVLHQDWLNGKEYKCKVSNKALPAPIEKTISKAKGQPREPQVYTLPPSREEMTKNQVSLTCDVSGFYPSDIAVEWESDGQPENNYKTTPPVLDSDGSFFLYSKLTVDKSRWEQGDVFSCSVLHEALHSHYTQKSLSLSPGK chain 2: not shown chain 3: DIVMTQSPDSLAVSLGERATINCKASHDVGTSVAWYQQKPGQSPKLLIYWASTRHTGVPDRFTGSGSGTDFTLTISSLQAEDVAVYFCQQYSSYPLTFGAGTKLEIKRTVAAPSVFIFPPSDEQLKSGTASVVCLLNNFYPREAKVQWKVDNALQSGNSQESVTEQDSKDSTYSLSSTLTLSKADYEKHKVYACEVTHQGLSSPVTKSFNRGEC	1200	
